These results are taken from patent US20170137467A1 (CHROMOTEK, published 2017).

Residue numbers refer to the chain shown, from its start. Square brackets hold non-standard residues; d marks the D form. GABA = NCCCC(=O)O

Experiment in all cases: positional peptide library pulldown on immobilised Nb, LC-MS of supernatant; signal ratio to control GFP-Nb (1 = not captured, near 0 = captured)
One test concerns the target T1, BC2T V7P.
T1 construct: positional scanning library member
T1 peptide: Ac-PDRKAAPSHWQQ-NH2
A digest of the protocol: (§1)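 Unbound peptide left in supernatant after 1 h pulldown in PBS/0.01% CHAPS measured by reversed-phase LC-MS (8–30% eluent B gradient, 20 min).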

The target of another test is T2, BC2T V7Q.
T2 construct: positional scanning library member
T2 peptide: Ac-PDRKAAQSHWQQ-NH2
A digest of the protocol: as §1

Another test deals with T3, BC2T P1T.
T3 construct: positional scanning library member
T3 peptide: Ac-TDRKAAVSHWQQ-NH2
A digest of the protocol: as §1

Another test deals with T4, BC2T A6Q.
T4 construct: positional scanning library member
T4 peptide: Ac-PDRKAQVSHWQQ-NH2
A digest of the protocol: as §1

For the next test, the target named is T5, BC2T V7N.
T5 construct: positional scanning library member
T5 peptide: Ac-PDRKAANSHWQQ-NH2
A digest of the protocol:
as §1

The target of a further test is T6, BC2T A5P.
T6 construct: positional scanning library member
T6 peptide: Ac-PDRKPAVSHWQQ-NH2
In outline: as §1

The target of a further test is T7, BC2T A6H.
T7 construct: positional scanning library member
T7 peptide: Ac-PDRKAHVSHWQQ-NH2
In outline: as §1

The target in the next test is T8, BC2T R3T.
T8 construct: positional scanning library member
T8 peptide: Ac-PDTKAAVSHWQQ-NH2
A digest of the protocol:
as §1

The next test deals with T9, BC2T A6T.
T9 construct: positional scanning library member
T9 peptide: Ac-PDRKATVSHWQQ-NH2
A digest of the protocol:
as §1

The target of another test is T10, BC2T A5W.
T10 construct: positional scanning library member
T10 peptide: Ac-PDRKWAVSHWQQ-NH2
A digest of the protocol: as §1

For the next test, the target named is T11, BC2T A5D.
T11 construct: positional scanning library member
T11 peptide: Ac-PDRKDAVSHWQQ-NH2
A digest of the protocol:
as §1

Another test deals with T12, BC2T K4W.
T12 construct: positional scanning library member
T12 peptide: Ac-PDRWAAVSHWQQ-NH2
A digest of the protocol:
as §1

Another test has as its target T13, BC2T V7C(Abu) (also: Abu described as gamma-amino butyric acid).
T13 construct: positional scanning library member
T13 peptide: Ac-PDRKAA[GABA]SHWQQ-NH2
A digest of the protocol: as §1

In a further test the target is T14, BC2T A5S.
T14 construct: positional scanning library member
T14 peptide: Ac-PDRKSAVSHWQQ-NH2
In outline: as §1

Another test deals with T15, BC2T P1S.
T15 construct: positional scanning library member
T15 peptide: Ac-SDRKAAVSHWQQ-NH2
A digest of the protocol: as §1

The target in another test is T16, BC2T V7S.
T16 construct: positional scanning library member
T16 peptide: Ac-PDRKAASSHWQQ-NH2
A digest of the protocol:
as §1

For a further test, the target named is T17, BC2T R3Y.
T17 construct: positional scanning library member
T17 peptide: Ac-PDYKAAVSHWQQ-NH2
In outline: as §1

The target in a further test is T18, BC2T P1H.
T18 construct: positional scanning library member
T18 peptide: Ac-HDRKAAVSHWQQ-NH2
A digest of the protocol: as §1

Another test deals with T19, BC2T R3H.
T19 construct: positional scanning library member
T19 peptide: Ac-PDHKAAVSHWQQ-NH2
A digest of the protocol:
as §1

A further test deals with T20, BC2T Q12E.
T20 construct: positional scanning library member
T20 peptide: Ac-PDRKAAVSHWQE-NH2
In outline:
as §1

The target of a further test is T21, BC2T H9E.
T21 construct: positional scanning library member
T21 peptide: Ac-PDRKAAVSEWQQ-NH2
In outline:
as §1

B1: BC2-NbR106E (VHH)
VHH: QVQLVESGGGLVQPGGSLTLSCTASGFTLDHYDIGWFRQAPGKEREGVSCINNSDDDTYYADSVKGRFTIFMDNAKDTVYLQMNSLKPEDTAIYYCAEARGCKRGEYEYDFWGQGTQVTVSS
notes: headlock mutant of BC2-Nb; immobilised on beads in this assay
Take B1: the ratio was found to be 0.9 with BC2T V7P; 0.4 with BC2T V7Q; 0.6 with BC2T P1T; 1 with BC2T A6Q; 0.4 with BC2T V7N; 0.2 in the test with BC2T A5P. Also, the ratio was found to be 1 with BC2T A6H; 0.6 with BC2T R3T; 0.3 in the test with BC2T A6T; 0 in the test with BC2T A5W; 0.9 in the test with BC2T A5D; 0.7 in the test with BC2T K4W. Also, the ratio was determined as 0.3 in the test with BC2T V7C(Abu); 0.2 with BC2T A5S; 0.4 in the test with BC2T P1S; 0.3 with BC2T V7S; 0.9 with BC2T R3Y; 0.4 with BC2T P1H. Besides, the ratio with BC2T R3H worked out at 0.5.

B2: BC2 nanobody (VHH)
VHH: B1 VHH with E106R
notes: immobilised on beads in this assay; also called BC2-Nb; BC2 nanotrap (immobilised)
As to B2, the ratio with BC2T Q12E was 0.4; with BC2T H9E it was 0.2.
